Experimental data: PMC3668577, “Structure of diaminohydroxyphosphoribosylaminopyrimidine deaminase/5-amino-6-(5-phosphoribosylamino)uracil reductase from Acinetobacter baumannii” (Acta Crystallographica Section F: Structural Biology and …, 2013)

How the values were obtained:
[1] = molecular target: Acinetobacter baumannii diaminohydroxyphosphoribosylaminopyrimidine deaminase/5-amino-6-(5-phosphoribosylamino)uracil reductase (RibD) (Acinetobacter baumannii (strain ATCC 19606)); test: SEC; Superdex 200 26/60, 50 mM Tris-HCl, 250 mM NaCl pH 7.5; both Ni2+ column peaks ran as homogeneous samples of approximate mass 58 kDa (tagged subunit 42 038 Da)
[2] = molecular target: Acinetobacter baumannii diaminohydroxyphosphoribosylaminopyrimidine deaminase/5-amino-6-(5-phosphoribosylamino)uracil reductase (RibD) (Acinetobacter baumannii (strain ATCC 19606)); test: crystal structure; form I (apo, C222(1), 2.2 A, two subunits in the asymmetric unit related by a noncrystallographic twofold) and form II (grown with 5 mM GMP, P4(3)2(1)2, 2.0 A, same dimer generated by a crystallographic twofold); crystals grown at 293 K
AbRibD = molecular target: T1, AbRibD (Acinetobacter baumannii, UniProt D0CB74); test: X-ray crystallography (cocrystallization), […] A; details: 5 mM GMP; crystals at pH 5, 293 K; NADPH-binding site of reductase domain (adenine pocket); second site on surface at occupancy 0.5; authors judge binding not biologically relevant
T1 construct: gene ribD; full length, 362 residues untagged (386 with tag); N-terminal His6-TEV tag (24 extra residues) kept; E. coli BL21(DE3); homodimer; subunit 42038 Da tagged
T1 sequence (D0CB74 1-361): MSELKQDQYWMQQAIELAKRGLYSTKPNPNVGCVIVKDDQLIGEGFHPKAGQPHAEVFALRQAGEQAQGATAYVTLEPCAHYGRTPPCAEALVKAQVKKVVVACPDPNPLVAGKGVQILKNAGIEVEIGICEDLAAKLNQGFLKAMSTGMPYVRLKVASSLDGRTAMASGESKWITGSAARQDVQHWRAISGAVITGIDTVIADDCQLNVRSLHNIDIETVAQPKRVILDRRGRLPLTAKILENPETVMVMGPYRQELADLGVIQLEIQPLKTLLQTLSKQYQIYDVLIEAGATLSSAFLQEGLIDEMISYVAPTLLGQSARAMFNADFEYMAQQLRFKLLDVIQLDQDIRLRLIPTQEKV

Acinetobacter baumannii diaminohydroxyphosphoribosylaminopyrimidine deaminase/5-amino-6-(5-phosphoribosylamino)uracil reductase (RibD) (enzyme)
stoichiometry N [1]: 2 | stoichiometry N [2]: 2

Nc1nc2c(ncn2[C@@H]2O[C@H](COP(=O)(O)O)[C@@H](O)[C@H]2O)c(=O)[nH]1 [GMP]
X-ray crystallography (cocrystallization), 1.99 A (AbRibD): a GMP molecule was observed in the NADPH-binding site of the reductase domain
